Test results reported in patent KR20220012792A (dated 2022).
Read-outs that look alike come from different tables or passages of the source.

How the values were obtained:
Experiment in all cases: cell-based or functional assay
[1] = molecular target: T1, S 단백질 of SARS-CoV-2 hCoV-19/South Korea/KUMC17/2020 (614G) (SARS-CoV-2)
[2] = molecular target: S 단백질 of SARS-CoV-2 hCoV-19/South Korea/KCDC9481/2020 (614G, G형) (SARS-CoV-2)
[3] = molecular target: T1, S 단백질 of SARS-CoV-2 hCoV-19/South …; remark: listed apart in the source
[4] = molecular target: T2, S 단백질 of SARS-CoV-2 hCoV-19/Korea/KCDC10847/2020 (GH형) (SARS-CoV-2)
[5] = molecular target: T1, S 단백질 of SARS-CoV-2 hCoV-19/South …; remark: listed apart in the source
[6] = molecular target: S 단백질 of SARS-CoV-2 영국변이바이러스주 hCoV-19/South Korea/KDCA0838/2020 (SARS-CoV-2)
[7] = molecular target: T1, S 단백질 of SARS-CoV-2 hCoV-19/South …; remark: listed apart in the source
[8] = molecular target: T2, S 단백질 of SARS-CoV-2 …; remark: listed apart in the source

B1: No. 139 항체 (Full IgG) (antibody, V domains shown)
VH: QITLKESGPTLVKPTQTLTLTCSFSGFSLSTSGVGVGWIRQPPGKALEWLALIDWDDNKYHTTSLKTRLTISKDTSKNQVVLTMTNMDPVDTATYYCARIPGFLRYRNRYYYYGMDVWGQGTTVTVSS
VL: ELVLTQPPSVSAAPGQKVTISCSGSSSNIGNNYVSWYQQLPGTAPKLLIYDNNKRPSGIPDRFSGSKSGTSATLGITGLQTGDEADYYCGTWDSSLSAGVFGGGTELTVL
B1 was tested. Which “IC50 (ng/ml), PRNT” value [1] did it give?
The value was 3.37 ng/mL.

What about the “IC50 (ng/ml), PRNT” value [2] of the same binder?
The value was 10.6 ng/mL.

What about the “IC50 (ng/ml), PRNT” value [3] of the same binder?
Its value is 5.77 ng/mL.

What about the “IC50 (ng/ml), PRNT” value [4] of the same binder?
Its value is 10.4 ng/mL.

What about the “IC50, PRNT” value [5] of the same binder?
The value was 5.73 ng/mL.

And the “IC50 (ng/ml), PRNT” value [6]?
The value was 9.62 ng/mL.

What about the “IC50 (ng/ml), PRNT” value [7] of the same binder?
Its value is 4.22 ng/mL.

What about the “IC50 (ng/ml), PRNT” value [8] of the same binder?
The value was 9.31 ng/mL.
